In patent US20240018502A1:

These binders were tested against plasma purified human complement protein C3 (human) (UniProt P01024) (assay: cell-based or functional assay).
plasma purified human complement protein C3 (human), sequence (P01024 23-667, chain 1 of 2): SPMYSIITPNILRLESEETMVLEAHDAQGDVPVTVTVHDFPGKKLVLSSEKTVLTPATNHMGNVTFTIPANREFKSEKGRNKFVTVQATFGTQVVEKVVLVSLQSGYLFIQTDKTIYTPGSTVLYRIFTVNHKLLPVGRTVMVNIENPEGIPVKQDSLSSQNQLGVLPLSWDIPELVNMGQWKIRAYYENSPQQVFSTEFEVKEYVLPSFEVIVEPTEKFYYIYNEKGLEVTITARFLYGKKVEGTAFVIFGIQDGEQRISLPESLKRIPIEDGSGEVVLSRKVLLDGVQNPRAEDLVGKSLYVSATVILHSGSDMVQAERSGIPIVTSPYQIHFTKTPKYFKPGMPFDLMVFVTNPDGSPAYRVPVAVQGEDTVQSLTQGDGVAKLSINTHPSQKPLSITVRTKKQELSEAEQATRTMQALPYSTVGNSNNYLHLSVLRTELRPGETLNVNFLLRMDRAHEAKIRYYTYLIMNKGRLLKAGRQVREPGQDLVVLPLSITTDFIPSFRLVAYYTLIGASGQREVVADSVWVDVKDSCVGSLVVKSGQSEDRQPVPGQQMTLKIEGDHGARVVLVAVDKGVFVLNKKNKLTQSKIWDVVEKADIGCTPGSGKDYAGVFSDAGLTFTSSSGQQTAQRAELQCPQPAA
plasma purified human complement protein C3 (human), sequence (P01024 672-1663, chain 2 of 2): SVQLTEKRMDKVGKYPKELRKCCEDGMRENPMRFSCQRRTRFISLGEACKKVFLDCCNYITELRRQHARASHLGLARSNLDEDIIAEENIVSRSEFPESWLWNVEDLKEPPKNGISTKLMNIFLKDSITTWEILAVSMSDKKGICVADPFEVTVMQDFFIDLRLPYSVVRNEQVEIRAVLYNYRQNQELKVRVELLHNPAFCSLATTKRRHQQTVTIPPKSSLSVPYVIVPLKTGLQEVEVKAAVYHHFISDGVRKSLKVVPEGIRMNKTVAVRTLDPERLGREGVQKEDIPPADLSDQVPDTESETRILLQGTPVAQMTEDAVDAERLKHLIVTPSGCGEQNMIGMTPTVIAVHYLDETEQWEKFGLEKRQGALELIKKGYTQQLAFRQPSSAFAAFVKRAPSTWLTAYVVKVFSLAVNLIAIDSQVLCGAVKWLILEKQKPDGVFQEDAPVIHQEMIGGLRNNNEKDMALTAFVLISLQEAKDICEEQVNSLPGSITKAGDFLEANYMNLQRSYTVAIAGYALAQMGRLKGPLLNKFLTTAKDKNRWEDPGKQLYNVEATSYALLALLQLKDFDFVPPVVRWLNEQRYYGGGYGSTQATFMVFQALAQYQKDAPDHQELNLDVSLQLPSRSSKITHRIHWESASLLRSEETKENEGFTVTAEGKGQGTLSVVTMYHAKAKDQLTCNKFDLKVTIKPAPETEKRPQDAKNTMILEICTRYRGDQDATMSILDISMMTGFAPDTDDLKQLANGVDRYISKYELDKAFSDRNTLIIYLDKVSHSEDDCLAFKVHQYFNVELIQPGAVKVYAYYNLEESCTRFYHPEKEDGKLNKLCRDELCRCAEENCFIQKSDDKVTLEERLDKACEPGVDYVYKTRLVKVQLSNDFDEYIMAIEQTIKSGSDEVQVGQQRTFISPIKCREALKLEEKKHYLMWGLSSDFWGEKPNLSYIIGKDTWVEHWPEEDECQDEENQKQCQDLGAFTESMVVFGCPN

| EC50 of hC3 cleavage [nM] | EC50 hC3 cleavage [nM] | Binder |
| --- | --- | --- |
| 108 |  | MTSP-1 Q38H/I41S/D96K/F97G/ins97aV/T98P/F99L/C122S/Q192D (enzyme) VVGGTDADEGEWPWQVSLHALGHGHSCGASLISPNWLVSAAHCYIDDRGFRYSDPTQWTAFLGLHDQSQRSAPGVQERRLKRIISHPFFNKGVPLDYDIALLELEKPAEYSSMVRPISLPDASHVFPAGKAIWVTGWGHTQYGGTGALILQKGEIRVINQTTCENLLPQQITPRMMCVGFLSGGVDSCDGDSGGPLSSVEADGRIFQAGVVSWGDGCAQRNKPGVYTRLPLFRDWIKENTGV |
| 68.6 |  | MTSP-1 I41S/D96K/F97G/ins97aV/T98P/F99L/C122S/Q175L/Q192D (enzyme) VVGGTDADEGEWPWQVSLHALGQGHSCGASLISPNWLVSAAHCYIDDRGFRYSDPTQWTAFLGLHDQSQRSAPGVQERRLKRIISHPFFNKGVPLDYDIALLELEKPAEYSSMVRPISLPDASHVFPAGKAIWVTGWGHTQYGGTGALILQKGEIRVINQTTCENLLPQLITPRMMCVGFLSGGVDSCDGDSGGPLSSVEADGRIFQAGVVSWGDGCAQRNKPGVYTRLPLFRDWIKENTGV |
| 22 |  | MTSP-1 Q38H/I41S/D96K/F97G/ins97aV/T98P/F99L/C122S/Q175L/Q192D (enzyme) VVGGTDADEGEWPWQVSLHALGHGHSCGASLISPNWLVSAAHCYIDDRGFRYSDPTQWTAFLGLHDQSQRSAPGVQERRLKRIISHPFFNKGVPLDYDIALLELEKPAEYSSMVRPISLPDASHVFPAGKAIWVTGWGHTQYGGTGALILQKGEIRVINQTTCENLLPQLITPRMMCVGFLSGGVDSCDGDSGGPLSSVEADGRIFQAGVVSWGDGCAQRNKPGVYTRLPLFRDWIKENTGV |
| 22.6 |  | MTSP-1 D96_F97delinsWYY/T98P/F99L/C122S (enzyme) VVGGTDADEGEWPWQVSLHALGQGHICGASLISPNWLVSAAHCYIDDRGFRYSDPTQWTAFLGLHDQSQRSAPGVQERRLKRIISHPFFNWYYPLDYDIALLELEKPAEYSSMVRPISLPDASHVFPAGKAIWVTGWGHTQYGGTGALILQKGEIRVINQTTCENLLPQQITPRMMCVGFLSGGVDSCQGDSGGPLSSVEADGRIFQAGVVSWGDGCAQRNKPGVYTRLPLFRDWIKENTGV |
|  | 4.18 | MTSP-1 protease domain I41G/F97R/F99L/C122S/G151N/Q175L/Q192S/D217V (enzyme) VVGGTDADEGEWPWQVSLHALGQGHGCGASLISPNWLVSAAHCYIDDRGFRYSDPTQWTAFLGLHDQSQRSAPGVQERRLKRIISHPFFNDRTLDYDIALLELEKPAEYSSMVRPISLPDASHVFPAGKAIWVTGWGHTQYGGTNALILQKGEIRVINQTTCENLLPQLITPRMMCVGFLSGGVDSCSGDSGGPLSSVEADGRIFQAGVVSWGVGCAQRNKPGVYTRLPLFRDWIKENTGV |
| 9.74 |  | MTSP-1 I41G/F97V/F99L/C122S/G151Q/Q175M/Q192A/D217L (enzyme) VVGGTDADEGEWPWQVSLHALGQGHGCGASLISPNWLVSAAHCYIDDRGFRYSDPTQWTAFLGLHDQSQRSAPGVQERRLKRIISHPFFNDVTLDYDIALLELEKPAEYSSMVRPISLPDASHVFPAGKAIWVTGWGHTQYGGTQALILQKGEIRVINQTTCENLLPQMITPRMMCVGFLSGGVDSCAGDSGGPLSSVEADGRIFQAGVVSWGLGCAQRNKPGVYTRLPLFRDWIKENTGV |
| 7.75 |  | MTSP-1 I41G/F97L/F99L/C122S/Q175A/Q192T/D217V (enzyme) VVGGTDADEGEWPWQVSLHALGQGHGCGASLISPNWLVSAAHCYIDDRGFRYSDPTQWTAFLGLHDQSQRSAPGVQERRLKRIISHPFFNDLTLDYDIALLELEKPAEYSSMVRPISLPDASHVFPAGKAIWVTGWGHTQYGGTGALILQKGEIRVINQTTCENLLPQAITPRMMCVGFLSGGVDSCTGDSGGPLSSVEADGRIFQAGVVSWGVGCAQRNKPGVYTRLPLFRDWIKENTGV |
| 6.33 |  | MTSP-1 F97E/F99L/C122S/D217I/K224N (enzyme) VVGGTDADEGEWPWQVSLHALGQGHICGASLISPNWLVSAAHCYIDDRGFRYSDPTQWTAFLGLHDQSQRSAPGVQERRLKRIISHPFFNDETLDYDIALLELEKPAEYSSMVRPISLPDASHVFPAGKAIWVTGWGHTQYGGTGALILQKGEIRVINQTTCENLLPQQITPRMMCVGFLSGGVDSCQGDSGGPLSSVEADGRIFQAGVVSWGIGCAQRNNPGVYTRLPLFRDWIKENTGV |
| 44.7 |  | MTSP-1 C122S/G193A (enzyme) VVGGTDADEGEWPWQVSLHALGQGHICGASLISPNWLVSAAHCYIDDRGFRYSDPTQWTAFLGLHDQSQRSAPGVQERRLKRIISHPFFNDFTFDYDIALLELEKPAEYSSMVRPISLPDASHVFPAGKAIWVTGWGHTQYGGTGALILQKGEIRVINQTTCENLLPQQITPRMMCVGFLSGGVDSCQADSGGPLSSVEADGRIFQAGVVSWGDGCAQRNKPGVYTRLPLFRDWIKENTGV |
| 119 |  | MTSP-1 C122S/G193E (enzyme) VVGGTDADEGEWPWQVSLHALGQGHICGASLISPNWLVSAAHCYIDDRGFRYSDPTQWTAFLGLHDQSQRSAPGVQERRLKRIISHPFFNDFTFDYDIALLELEKPAEYSSMVRPISLPDASHVFPAGKAIWVTGWGHTQYGGTGALILQKGEIRVINQTTCENLLPQQITPRMMCVGFLSGGVDSCQEDSGGPLSSVEADGRIFQAGVVSWGDGCAQRNKPGVYTRLPLFRDWIKENTGV |
| 51.7 |  | MTSP-1 H40R/I41H/F97E/C122S (enzyme) VVGGTDADEGEWPWQVSLHALGQGRHCGASLISPNWLVSAAHCYIDDRGFRYSDPTQWTAFLGLHDQSQRSAPGVQERRLKRIISHPFFNDETFDYDIALLELEKPAEYSSMVRPISLPDASHVFPAGKAIWVTGWGHTQYGGTGALILQKGEIRVINQTTCENLLPQQITPRMMCVGFLSGGVDSCQGDSGGPLSSVEADGRIFQAGVVSWGDGCAQRNKPGVYTRLPLFRDWIKENTGV |
|  | 63.8 | MTSP-1 protease domain I41D/F97T/F99M/C122S/Q192V/D217M (enzyme) VVGGTDADEGEWPWQVSLHALGQGHDCGASLISPNWLVSAAHCYIDDRGFRYSDPTQWTAFLGLHDQSQRSAPGVQERRLKRIISHPFFNDTTMDYDIALLELEKPAEYSSMVRPISLPDASHVFPAGKAIWVTGWGHTQYGGTGALILQKGEIRVINQTTCENLLPQQITPRMMCVGFLSGGVDSCVGDSGGPLSSVEADGRIFQAGVVSWGMGCAQRNKPGVYTRLPLFRDWIKENTGV |
| 12.1 |  | MTSP-1 I41T/F97W/F99L/C122S/G151N/Q175M/Q192G/D217L (enzyme) VVGGTDADEGEWPWQVSLHALGQGHTCGASLISPNWLVSAAHCYIDDRGFRYSDPTQWTAFLGLHDQSQRSAPGVQERRLKRIISHPFFNDWTLDYDIALLELEKPAEYSSMVRPISLPDASHVFPAGKAIWVTGWGHTQYGGTNALILQKGEIRVINQTTCENLLPQMITPRMMCVGFLSGGVDSCGGDSGGPLSSVEADGRIFQAGVVSWGLGCAQRNKPGVYTRLPLFRDWIKENTGV |
| 35.4 |  | MTSP-1 H40R/I41H/F97D/F99L/C122S/Q192G (enzyme) VVGGTDADEGEWPWQVSLHALGQGRHCGASLISPNWLVSAAHCYIDDRGFRYSDPTQWTAFLGLHDQSQRSAPGVQERRLKRIISHPFFNDDTLDYDIALLELEKPAEYSSMVRPISLPDASHVFPAGKAIWVTGWGHTQYGGTGALILQKGEIRVINQTTCENLLPQQITPRMMCVGFLSGGVDSCGGDSGGPLSSVEADGRIFQAGVVSWGDGCAQRNKPGVYTRLPLFRDWIKENTGV |
|  | 24.2 | MTSP-1 protease domain I41T/F97L/F99L/C122S/G151N/Q175S/Q192S/D217W (enzyme) VVGGTDADEGEWPWQVSLHALGQGHTCGASLISPNWLVSAAHCYIDDRGFRYSDPTQWTAFLGLHDQSQRSAPGVQERRLKRIISHPFFNDLTLDYDIALLELEKPAEYSSMVRPISLPDASHVFPAGKAIWVTGWGHTQYGGTNALILQKGEIRVINQTTCENLLPQSITPRMMCVGFLSGGVDSCSGDSGGPLSSVEADGRIFQAGVVSWGWGCAQRNKPGVYTRLPLFRDWIKENTGV |
| 110 |  | MTSP-1 H40R/I41H/F97D/C122S/G151N (enzyme) VVGGTDADEGEWPWQVSLHALGQGRHCGASLISPNWLVSAAHCYIDDRGFRYSDPTQWTAFLGLHDQSQRSAPGVQERRLKRIISHPFFNDDTFDYDIALLELEKPAEYSSMVRPISLPDASHVFPAGKAIWVTGWGHTQYGGTNALILQKGEIRVINQTTCENLLPQQITPRMMCVGFLSGGVDSCQGDSGGPLSSVEADGRIFQAGVVSWGDGCAQRNKPGVYTRLPLFRDWIKENTGV |
| 85.7 |  | MTSP-1 C122S/G151N/G193A (enzyme) VVGGTDADEGEWPWQVSLHALGQGHICGASLISPNWLVSAAHCYIDDRGFRYSDPTQWTAFLGLHDQSQRSAPGVQERRLKRIISHPFFNDFTFDYDIALLELEKPAEYSSMVRPISLPDASHVFPAGKAIWVTGWGHTQYGGTNALILQKGEIRVINQTTCENLLPQQITPRMMCVGFLSGGVDSCQADSGGPLSSVEADGRIFQAGVVSWGDGCAQRNKPGVYTRLPLFRDWIKENTGV |
| 2.84 |  | MTSP-1 I41G/F97I/F99L/C122S/G151L/Q175M/Q192S/D217V (enzyme) VVGGTDADEGEWPWQVSLHALGQGHGCGASLISPNWLVSAAHCYIDDRGFRYSDPTQWTAFLGLHDQSQRSAPGVQERRLKRIISHPFFNDITLDYDIALLELEKPAEYSSMVRPISLPDASHVFPAGKAIWVTGWGHTQYGGTLALILQKGEIRVINQTTCENLLPQMITPRMMCVGFLSGGVDSCSGDSGGPLSSVEADGRIFQAGVVSWGVGCAQRNKPGVYTRLPLFRDWIKENTGV |
| 78.1 |  | MTSP-1 F97D/F99L/C122S/Q192G (enzyme) VVGGTDADEGEWPWQVSLHALGQGHICGASLISPNWLVSAAHCYIDDRGFRYSDPTQWTAFLGLHDQSQRSAPGVQERRLKRIISHPFFNDDTLDYDIALLELEKPAEYSSMVRPISLPDASHVFPAGKAIWVTGWGHTQYGGTGALILQKGEIRVINQTTCENLLPQQITPRMMCVGFLSGGVDSCGGDSGGPLSSVEADGRIFQAGVVSWGDGCAQRNKPGVYTRLPLFRDWIKENTGV |
| 59.6 |  | MTSP-1 H40R/I41H/C122S/G151N (enzyme) VVGGTDADEGEWPWQVSLHALGQGRHCGASLISPNWLVSAAHCYIDDRGFRYSDPTQWTAFLGLHDQSQRSAPGVQERRLKRIISHPFFNDFTFDYDIALLELEKPAEYSSMVRPISLPDASHVFPAGKAIWVTGWGHTQYGGTNALILQKGEIRVINQTTCENLLPQQITPRMMCVGFLSGGVDSCQGDSGGPLSSVEADGRIFQAGVVSWGDGCAQRNKPGVYTRLPLFRDWIKENTGV |
| 6.84 |  | MTSP-1 I41G/F97S/F99L/C122S/G151N/Q175L/Q192G/D217I (enzyme) VVGGTDADEGEWPWQVSLHALGQGHGCGASLISPNWLVSAAHCYIDDRGFRYSDPTQWTAFLGLHDQSQRSAPGVQERRLKRIISHPFFNDSTLDYDIALLELEKPAEYSSMVRPISLPDASHVFPAGKAIWVTGWGHTQYGGTNALILQKGEIRVINQTTCENLLPQLITPRMMCVGFLSGGVDSCGGDSGGPLSSVEADGRIFQAGVVSWGIGCAQRNKPGVYTRLPLFRDWIKENTGV |
